The values that follow come from patent US20050065081A1, “Tyrosine kinase inhibitors” (priority 2002, published 2005).

For this data set, the system named is GST-Jun. The experiment in a line: Abl in vitro kinase assay of immunoprecipitated Abl proteins, GST-Jun as substrate. In kind it is biochemical. The conditions noted are these: expressed in HEK293 cells, relative to Abl M1-K531. The protocol: C. Abl protein was immunoprecipitated from total cell extract using anti-Abl antibodies, blotted to nitrocellulose and probed with anti-Abl and anti-phosphotyrosine antibodies (left panels). Abl immunoprecipitates were assayed for catalytic activity by in vitro kinase assay using GST-Jun as substrate.
The catalytic activity of purified Abl protein bound to protein G-Sepharose beads was determined as follows. Beads were washed three times with IP buffer, two times with IP buffer without NaCl and two times with kinase assay buffer (20 mM Tris-HCl pH 7.5, 10 mM MgCl2, 1 mM DTT). Twenty μl linase assay mix (1 μg GST-Crk121-226 (Dorey et al., 1999), 0.5 μl [γ-^32P]-ATP (Amersham), 0.1 mM ATP in kinase assay buffer) was added and the mixture was incubated at room temperature for 10 and 20 minutes. The kinase reaction was stopped by adding SDS-sample buffer and analyzed by SDS-PAGE. Quantification of the reaction was done by cutting the desired bands from gel followed by liquid scintillation counting and/or phosphoimager analysis. For the in vitro inhibition of Abl, GST or GST 1b+2 protein were bacterially expressed, purified and dialysed against kinase assay buffer. Equal quantities of purified proteins were added directly to the kinase assay mixture, samples were incubated for 2 hours at 4° C. and then assayed as above.

As for “Abl M1-K531: deletion mutant lacking the last exon region of c-Abl”, the “Catalytic activity and tyrosine phosphorylation (in words)” value is given as “did not lead to activation”.

B1: Abl P82-K531: mutant lacking the last exon region and the N-terminal amino acids preceding the SH3 domain (protein, UniProt P00519 82-531, looked up, fragment)
chain: ITKGEKLRVLGYNHNGEWCEAQTKNGQGWVPSNYITPVNSLEKHSWYHGPVSRNAAEYLLSSGINGSFLVRESESSPGQRSISLRYEGRVYHYRINTASDGKLYVSSESRFNTLAELVHHHSTVADGLITTLHYPAPKRNKPTVYGVSPNYDKWEMERTDITMKHKLGGGQYGEVYEGVWKKYSLTVAVKTLKEDTMEVEEFLKEAAVMKEIKHPNLVQLLGVCTREPPFYIITEFMTYGNLLDYLRECNRQEVNAVVLLYMATQISSAMEYLEKKNFIHRDLAARNCLVGENHLVKVADFGLSRLMTGDTYTAHAGAKFPIKWTAPESLAYNKFSIKSDVWAFGVLLWEIATYGMSPYPGIDLSQVYELLEKDYRMERPEGCPEKVYELMRACWQWNPSDRPSFAEIHQAFETMFQESSISDEVEKELGKQGVRGAVSTLLQAPELPTK
modifications: isoform 1B
notes: mutant lacking the last exon region and the N-terminal amino acids preceding the SH3 domain
For B1, the “Catalytic activity and tyrosine phosphorylation (in words)” value is given as “highly active in vitro”.
